The values below come from FireProtDB (doi:10.1007/s10930-015-9600-7).

Sequences and labels used below:
B1: Carboxymethylenebutenolidase, P0A115 (parent)
chain: MLTEGISIQSYDGHTFGALVGSPAKAPAPVIVIAQEIFGVNAFMRETVSWLVDQGYAAVCPDLYARQAPGTALDPQDERQREQAYKLWQAFDMEAGVGDLEAAIRYARHQPYSNGKVGLVGYCLGGALAFLVAAKGYVDRAVGYYGVGLEKQLKKVPEVKHPALFHMGGQDHFVPAPSRQLITEGFGANPLLQVHWYEEAGHSFARTSSSGYVASAAALANERRLDFLAPLQSKKP

The variants in the data set derive from B1. Conditions: Pseudomonas knackmussii (strain DSM 6978 / CCUG 54928 / LMG 23759 / B13), pH 7.5, Thermal, Hepes 50 mM, structure 4U2B, whole UniProt chain shown.

Regarding MLTEGISIQSYDGHTFGALVGSPAKAPAPVIVIAQEIFGVNAFMRETVSWLVDQGYAAVCPDLYARQAPGTALDPQDERQREQAYKLWQAFDMEAGVGDLEAAIRYARHQPYSNGKVGLVGYCLGGALAFLVAAKGYVDRAVGYYGVGLEKQLDKVPEVKHPALFHMGGQDHFVPAPSRQLITEGFGANPLLQVHWYEEAGHSFARTSSSGYVASAAALANERRLDFLAPLQSKKP [K154D], the midpoint of thermal melting (Tm) (as a rule, the temperature at the midpoint of the melting transition) is, setting by setting: (Activity, NaCl 75 mM) 53.9 °C; (fluorescence) 54.4 °C. Further, the “change of melting temperature, mutant - wild type (higher = more stable)” value (shortened to “change of melting temperature, mutant”) runs as follows: (Activity, NaCl 75 mM) 2.7 °C; (fluorescence) 2.9 °C.

Regarding MLTEGISIQSYDGHTFGALVGSPAKAPAPVIVIAQEIFGVNAFMRETVSWLVDQGYAAVCPDLYARQAPGTALDPQDERQREQAYKLWQAFDMEAGVGDLEAAIRYARHLPYSNGKVGLVGYCLGGALAFLVAAKGYVDRAVGYYGVGLEKQLDKVPEVKHPALFHMGGQDHFVPAPSRQLITEGFGANPLLQVHWYEEAGHSFARTSSSGYVASAAALANERRLDFLAPLQSKKP [Q110L K154D], where the note is “Activity, NaCl 75 mM”, the Tm is 54.2 °C and the “change of melting temperature, mutant” value is 3.1 °C. Further, for the setting “fluorescence”, the melting temperature (Tm) is 54.8 °C and the “change of melting temperature, mutant” value amounted to 3.3 °C.

With MLTEGISIQSYDGHTFGALVGSPAKAPAPVIVIAQEIFGVNAFMRETVSWLVDQGYAAVCPDLYARQAPGTALDPQDERQREQAYKLWQAFDMEAGVGDLEAAIRYARHQPYSNGKVGLVGYCLGGALAFLVAAKGCVDRAVGYYGVGLEKQLKKVPEVKHPALFHMGGQDHFVPAPSRQLITEGFGANPLLQVHWYEEAGHSFARTSSSGYVASAAALANERRLDFLAPLQSKKP [Y137C], under “Activity, NaCl 75 mM”, the melting temperature (Tm) stood at 49.3 °C and the “change of melting temperature, mutant” value is -1.9 °C. Also, for the setting “fluorescence”, the Tm was 50.8 °C and the “change of melting temperature, mutant” value is -0.7 °C.
